From US20240049668A1 (VILMORIN AND CIE, published 2024)
Where two headings read alike, the source gives them in different places.

Columns and labels:
Assay in all cases: cell-based or functional assay
[1] = molecular target: T1, Movement Protein of ToBRFV (Tomato Brown Rugose Fruit Virus …, UniProt A0A0S2SZW1 1-266)
T1 sequence: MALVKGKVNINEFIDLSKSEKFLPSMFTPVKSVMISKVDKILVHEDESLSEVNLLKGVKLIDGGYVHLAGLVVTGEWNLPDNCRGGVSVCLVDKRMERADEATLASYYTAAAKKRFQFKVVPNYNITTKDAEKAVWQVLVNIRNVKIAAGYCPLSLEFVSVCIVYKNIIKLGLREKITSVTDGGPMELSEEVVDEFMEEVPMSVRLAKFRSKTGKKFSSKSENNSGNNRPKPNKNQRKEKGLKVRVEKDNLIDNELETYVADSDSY

[2] = molecular target: T1, Movement Protein of ToBRFV; remark: listed apart in the source
[3] = molecular target: T1, Movement Protein of ToBRFV; remark: listed apart in the source
[4] = molecular target: T1, Movement Protein of ToBRFV; remark: listed apart in the source
[5] = molecular target: T1, Movement Protein of ToBRFV; remark: listed apart in the source
[6] = molecular target: T1, Movement Protein of ToBRFV; remark: listed apart in the source

B1: TM-2-2 protein (product of the Tm-2-2 gene) (receptor)
chain: MAEILLTSVINKSVEIAGNLLIQEGKRLYWLKEDIDWLQREMRHIRSYVDNAKAKEAGGDSRVKNLLKDIQELAGDVEDLLDDFLPKIQQSNKFNYCLKRSSFADEFAMEIEKIKRRVVDIDRIRKTYNIIDTDNNNDDCVLLDRRRLFLHADETEIIGLDDDFNMLQAKLLNQDLHYGVVSIVGMPGLGKTTLAKKLYRLIRDQFECSGLVYVSQQPRASEILLDIAKQIGLTEQKMKENLEDNLRSLLKIKRYVILLDDIWDVEIWDDLKLVLPECDSKVGSRMIITSRNSNVGRYIGGESSLHALQPLESEKSFELFTKKIFNFDDNNSWANASPDLVNIGRNIVGRCGGIPLAIVVTAGMLRARERTEHAWNRVLESMGHKVQDGCAKVLALSYNDLPIASRPCFLYFGLYPEDHEIRAFDLINMWIAEKFIVVNSGNRREAEDLAEDVLNDLVSRNLIQLAKRTYNGRISSCRIHDLLHSLCVDLAKESNFFHTAHDAFGDPGNVARLRRITFYSDNVMIEFFRSNPKLEKLRVLFCFAKDPSIFSHMAYFDFKLLHTLVVVMSQSFQAYVTIPSKFGNMTCLRYLRLEGNICGKLPNSIVKLTRLETIDIDRRSLIQPPSGVWESKHLRHLCYRDYGQACNSCFSISSFYPNIYSLHPNNLQTLMWIPDKFFEPRLLHRLINLRKLGILGVSNSTVKMLSIFSPVLKALEVLKLSFSSDPSEQIKLSSYPHIAKLHLNVNRTMALNSQSFPPNLIKLTLAYFSVDRYILAVLKTFPKLRKLKMFICKYNEEKMDLSGEANGYSFPQLEVLHIHSPNGLSEVTCTDDVSMPKLKKLLLTGFHCRISLSERLKKLSK
< 1 HR scale 0-4: HR to MP Rugose [1] | HR to MP Rugose [2] | HR when expressed with MP Rugose [3] | HR to MP Rugose [4] | HR when expressed with MP Rugose [5] | HR to MP Rugose [6]
